Publication doi:10.1101/2022.10.05.510932 (bioRxiv, 2022)

B1: truncated KpFtsZ (residues 11-316) (domain or fragment, Klebsiella pneumoniae, UniProt W9BCK7 11-316, looked up)
chain: AVIKVIGVGGGGGNAVEHMVRERIEGVEFFAVNTDAQALRKTAVGQTIQIGSGITKGLGAGANPEVGRNAADEDREALRAALDGADMVFIAAGMGGGTGTGAAPVVAEVAKDLGILTVAVVTKPFNFEGKKRMAFAEQGITELSKHVDSLITIPNDKLLKVLGRGISLLDAFGAANDVLKGAVQGIAELITRPGLMNVDFADVRTVMSEMGYAMMGSGVASGEDRAEEAAEMAISSPLLEDIDLSGARGVLVNITAGFDLRLDEFETVGNTIRAFASDNATVVIGTSLDPDMNDELRVTVVATGIG
B2: FtsZ from Klebsiella pneumoniae, full length, tag removed (natural protein, UniProt W9BCK7 1-383, looked up)
chain: MFEPMELTNDAVIKVIGVGGGGGNAVEHMVRERIEGVEFFAVNTDAQALRKTAVGQTIQIGSGITKGLGAGANPEVGRNAADEDREALRAALDGADMVFIAAGMGGGTGTGAAPVVAEVAKDLGILTVAVVTKPFNFEGKKRMAFAEQGITELSKHVDSLITIPNDKLLKVLGRGISLLDAFGAANDVLKGAVQGIAELITRPGLMNVDFADVRTVMSEMGYAMMGSGVASGEDRAEEAAEMAISSPLLEDIDLSGARGVLVNITAGFDLRLDEFETVGNTIRAFASDNATVVIGTSLDPDMNDELRVTVVATGIGMDKRPEITLVTNKQVQQPVMDRYQQHGMSPLTQEQKPAAKVVNDNTPQTAKEPDYLDIPAFLRKQAD

Legend:
crystal structure = biological target: the molecule itself; assay: crystal structure
cryo-EM structure = biological target: the molecule itself; assay: cryo-EM structure

| Protein | binding result (crystal structure) | binding result (cryo-EM structure) |
| --- | --- | --- |
| B1 | binds | – |
| B2 | – | binds |
